Assay results: patent US20220306744A1
Blank lines part the entries; values can stand above or below the binder they belong to.

What was measured:
[1] = target: Strep tagged recombinant human PD-1 (human) (UniProt Q15116); experiment: SPR Biacore T200, single cycle kinetics, Strep tagged human PD-1 amine coupled, 1:1 model
[2] = target: recombinant human PD-1 Fc chimera (human) (UniProt Q15116); experiment: HTRF binding assay, 2 nM recombinant PD1, anti His-D2 and anti human-Fc cryptate
[3] = target: cynomolgus PD-1 recombinant protein (Acro Biosystems cat no. PD-1-C5254) (cynomolgus); experiment: as above
[4] = target: recombinant human PD-1 Fc chimera (human) (UniProt Q15116); experiment: SPR Biacore T200, single cycle kinetics, human Fc tagged PD-1 captured on Protein G, 1:1 model; second line of values in the continuation row of the name
[5] = target: human PD-1 expressed on cells (CHO TREX human PD1 cell line, full-length human PD-1 sequence) (human) (UniProt Q15116); experiment: FMAT: inhibition of human Fc tagged human PD-L1 (400 pM) binding to CHO human PD-1 cells
human PD-1 expressed on cells (CHO TREX human PD1 cell line, full-length human PD-1 sequence) (human), sequence (Q15116 21-288): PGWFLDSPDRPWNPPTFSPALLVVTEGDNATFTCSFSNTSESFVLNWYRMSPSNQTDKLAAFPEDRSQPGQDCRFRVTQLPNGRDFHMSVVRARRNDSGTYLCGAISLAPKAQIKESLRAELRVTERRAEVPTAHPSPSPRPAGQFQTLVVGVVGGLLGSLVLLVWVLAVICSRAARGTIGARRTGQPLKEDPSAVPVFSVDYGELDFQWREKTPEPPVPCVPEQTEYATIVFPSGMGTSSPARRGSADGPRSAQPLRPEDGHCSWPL

[6] = target: recombinant human PD-1 Fc chimera (human) (UniProt Q15116); experiment: SPR Biacore T200, single cycle kinetics, human Fc tagged PD-1 captured on Protein G, 1:1 model
[7] = target: human PD-1 expressed on cells (CHO TREX human PD1 cell line, full-length human PD-1 sequence) (human) (UniProt Q15116); experiment: cell-based or functional assay

recombinant human PD-1 Fc chimera (human), sequence (Q15116 25-167 limits assumed, stated change not applied): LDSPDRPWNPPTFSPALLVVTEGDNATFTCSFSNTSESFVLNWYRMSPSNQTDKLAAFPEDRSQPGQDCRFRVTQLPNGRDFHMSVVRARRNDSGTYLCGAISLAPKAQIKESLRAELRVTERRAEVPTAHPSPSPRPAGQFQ
Strep tagged recombinant human PD-1 (human), sequence (Q15116 25-167 limits assumed): as the sequence (Q15116 25-167 limits assumed, stated change not applied) above

Kd [1]: 0.134 nM
koff [1]: 4.68e-05 s⁻¹
kon [1]: 349000 M⁻¹ s⁻¹
EC50 [2]: 1 nM
EC50 [3]: 1.6 nM
Kd [4]: 0.0166 pM
koff [4]: 1.32e-08 s⁻¹
kon [4]: 793000 M⁻¹ s⁻¹
IC50 [5]: 4.4 nM
Kd [6]: 0.0517 pM
koff [6]: 2.67e-08 s⁻¹
kon [6]: 516000 M⁻¹ s⁻¹
EC50 (M), NFAT-Luciferase reporter gene assay [7]: 2.5e-09 M
B1: 1.57b-4GS-1.1a-4GS-MSA binder (protein, part only; not given: Albumin binder, second linker, His tag, not shown: another chain or arm of the molecule; large carriers; small tags and cut ends)
chain: QVQLVESGGGLVKPGGSLRLSCAASGFTFSDNSMTWMRQAPGKGLEWVSYISSGGGVIFYADSVKGRFTISRDNAKNSLYLQMNSLRADDTAVYYCAREAPLRLGESPHDAFDISGQGTMVTVSSGGGGSGGGGSGGGGSGGGGSEVQLLESGGGSVQPGRSLRLSCAASGFTFDDHAMHWVRQAPGKGLEWVSGISWNSGSMGYADSVKDRFTISRDNAKSSLYLQMNSLRAEDTALYYCVREKGPGLTGSTADYYGLDVWGQGTMVTVSS

EC50 (M), NFAT-Luciferase reporter gene assay [7]: 4.7e-09 M
B2: 1.92b-4GS-1.39a-4GS-MSA binder (protein, part only; not given: mouse serum albumin binder, part only)
chain, part: EVQLVESGGGLVKPGGSLRLSCAASGFTFSDESMTWMRQAPGKGLEWVSYISSGGGVKFYADSVKGRFTISRDNAKNSLYLQMNSLRAEDTAVYYCAREAPLRLGESPHDAFDISGQGTMVTVSSGGGGSGGGGSGGGGSGGGGSEVQLVESGGGLVQPGRSLRLSCAASGFTFDDYALHWVRQAPGKDLEWVSGISWNGGSYGYADSVKGRFTISRDNAKNSLYLQMNSLRAEDTALYYCVREKGPGLTGSTADYYGLDAWGQGTMVTVSSGGGGSGGGGSGGGGSGGGGS

Kd [6]: 8.06 pM
koff [6]: 4.23e-06 s⁻¹
kon [6]: 524000 M⁻¹ s⁻¹
EC50 (M), NFAT-Luciferase reporter gene assay [7]: 3.2e-09 M
B3: 1.57b-4GS-MSA binder-4GS-1.1a (protein, part only; not given: Middle albumin binder and linkers, not shown: another chain or arm of the molecule; large carriers; small tags and cut ends)
VH 1: QVQLVESGGGLVKPGGSLRLSCAASGFTFSDNSMTWMRQAPGKGLEWVSYISSGGGVIFYADSVKGRFTISRDNAKNSLYLQMNSLRADDTAVYYCAREAPLRLGESPHDAFDISGQGTMVTVSS
VH 2: EVQLLESGGGSVQPGRSLRLSCAASGFTFDDHAMHWVRQAPGKGLEWVSGISWNSGSMGYADSVKDRFTISRDNAKSSLYLQMNSLRAEDTALYYCVREKGPGLTGSTADYYGLDVWGQGTMVTVSS
modifications: In the real molecule both VH are parts of one polypeptide: 1.57b, 4GS (SEQ ID NO 1105), MSA binder VH, 4GS (SEQ ID NO 1105), 1.1a. They are given here as two separate chains because the middle domain has no letters.
